Laboratory results from patent KR20230139570A (dated 2023).

Columns and labels:
[1] = target: CD47 on CD47-overexpressing breast cancer cell line MCF-7 (UniProt Q08722); experiment: flow cytometry on MCF-7 cells, secondary antibody alone (background control)
[2] = target: CD47 단백질 (Acrobiosystems, cat# CD7-HA2E9) (UniProt Q08722); experiment: ELISA, CD47 protein coated, negative control
[3] = target: CD47 단백질 (Acrobiosystems, cat# CD7-HA2E9) (UniProt Q08722); experiment: ELISA, CD47 protein coated, same method as Example 2-1
[4] = target: 인간 CD47 단백질 (Human CD47, SPR analyte) (human, UniProt Q08722 19-139, limits assumed); experiment: SPR, Biacore 8K, antibody captured, human CD47 as analyte
Sequence of 인간 CD47 단백질 (Human CD47, SPR analyte) (Q08722 19-139 limits assumed): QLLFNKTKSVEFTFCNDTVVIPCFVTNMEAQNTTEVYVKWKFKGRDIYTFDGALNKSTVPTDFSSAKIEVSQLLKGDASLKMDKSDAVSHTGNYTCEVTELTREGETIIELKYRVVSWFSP

| Kd [4] | koff [4] | kon [4] | Molecule | also measured |
| --- | --- | --- | --- | --- |
|  |  |  | PE-conjugated goat anti-mouse IgG (Biolegend Inc., cat# 405307) (antibody) | Mean (fluorescence) [1]: 80; Median (fluorescence) [1]: 73.9 |
|  |  |  | 음성대조군 (negative control of the Hu3A5V10 ELISA) | OD450 [2]: 0.0431 OD450 |
|  |  |  | Hu3A5V10 항체 (humanized 3A5 antibody, as tested in Example 4) (antibody, V domains shown) VH: EVQLVQSGSELKKPGASVKVSCKASGYTFTSYWMHWMRQAPGQGLEWIGVIDPSDSYTSYNQGFTGRFVLSVDTSVSTAYLQISSLKAEDTAVYYCARGGKRAMDYWGQGTTVTVSS VL: DVVMTQSPLSLPVTLGQPASISCRSSQSLVHSNGNTYLHWFQQRPGQSPRLLIYKVSNRFSGVPDRFSGSGSGTDFTLKISRVEAEDVGVYYCSQSTHVPFTFGGGTKLEIK | OD450 [3]: 2.81 OD450 |
| 0.208 nM | 0.000458 s⁻¹ | 2.21e+06 M⁻¹ s⁻¹ | AHF16310 전장 항체 (full length antibody, IgG4) (antibody, V domains shown, also called AHF16310 항체) VH: EVQLVQSGSELKKPGASVKVSCKASGYTFTSYWMHWMRQAPGQGLEWIGVIDPNDSYTSYNQGFTGRFVLSVDTSVSTAYLQISSLKAEDTAVYYCARGGKRMMDYWGQGTTVTVSS VL: DVVMTQSPLSLPVTLGQPASISCRSSQSLVHSNGNTYLHWFQQRPGQSPRLLIYKVSNRFTGVPDRFSGSGSGTDFTLKISRVEAEDVGVYYCSQSTHVPFTFGGGTKLEIKR |  |
| 0.465 nM | 0.000467 s⁻¹ | 1e+06 M⁻¹ s⁻¹ | Hu3A5V10 전장 항체 (full length antibody, IgG4) (antibody, V domains shown, also called U822EGG010-Hu3A5V10) VH: EVQLVQSGSELKKPGASVKVSCKASGYTFTSYWMHWMRQAPGQGLEWIGVIDPSDSYTSYNQGFTGRFVLSVDTSVSTAYLQISSLKAEDTAVYYCARGGKRAMDYWGQGTTVTVSS VL: DVVMTQSPLSLPVTLGQPASISCRSSQSLVHSNGNTYLHWFQQRPGQSPRLLIYKVSNRFSGVPDRFSGSGSGTDFTLKISRVEAEDVGVYYCSQSTHVPFTFGGGTKLEIKR |  |
| 0.166 nM | 0.000307 s⁻¹ | 1.85e+06 M⁻¹ s⁻¹ | AHF16312 전장 항체 (full length antibody, IgG4) (antibody, V domains shown, also called AHF16312 항체) VH: EVQLVQSGSELKKPGASVKVSCKASGYTFTSYWMHWMRQAPGQGLEWIGVIDPNDSYTSYNQGFTGRFVLSVDTSVSTAYLQISSLKAEDTAVYYCARGGKRIMDYWGQGTTVTVSS VL: DVVMTQSPLSLPVTLGQPASISCRSSQSLVHSNGNTYLNWFQQRPGQSPRLLIYKVSNRFTGVPDRFSGSGSGTDFTLKISRVEAEDVGVYYCSQSTHVPFTFGGGTKLEIKR |  |
| 0.312 nM | 0.000865 s⁻¹ | 2.78e+06 M⁻¹ s⁻¹ | AHF16309 전장 항체 (full length antibody, IgG4) (antibody, V domains shown, also called AHF16309 항체) VH: EVQLVQSGSELKKPGASVKVSCKASGYTFTSYWMHWMRQAPGQGLEWIGVIDPNDSYTSYNQGFTGRFVLSVDTSVSTAYLQISSLKAEDTAVYYCARGGKRMMDYWGQGTTVTVSS VL: DVVMTQSPLSLPVTLGQPASISCRSSQSLVHSNGNTYLNWFQQRPGQSPRLLIYKVSNRFPGVPDRFSGSGSGTDFTLKISRVEAEDVGVYYCSQSTHVPFTFGGGTKLEIKR |  |
